Laboratory results reported in US20090053138, “Stabilized Aptamers to Platelet Derived Growth Factor and their Use as Oncology Therapeutics” (published 2009).

Target: PDGF-BB (Homo sapiens, UniProt P01127 P01127:82-190)
Experiment: cell_activity; 3T3 proliferation; Table 2 prints 3.45
Conditions: tags: PeproTech; chain copies: 2 (inferred, homodimer)

Sequence of PDGF-BB (P01127 82-190, one chain of several): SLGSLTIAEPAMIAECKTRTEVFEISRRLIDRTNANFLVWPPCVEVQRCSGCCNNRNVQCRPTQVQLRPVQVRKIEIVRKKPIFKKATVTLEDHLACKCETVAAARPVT

B1: ARC124 (ssDNA)
DNA: CACAGGCTACGGCACGTAGAGCATCACCATGATCCTGTG
modifications: 3'-inverted dT
B1 gave an IC50 of 20.7 nM.
